This is an account of results in publication PMC12856669 (2026).

Assay [1] has as its target NpF2164g6 (1038–1206), holo-protein, not biotinylated. Kind of assay: thermal reversion kinetics (UV-vis); observed thermal reversion rate of NpF2164g6 against binder concentration, gives Kd,L of the light (Pg) state; 25 °C, PBS pH 7.2.
For assay [2], the target named is Biotinylated NpF2164g6 (1038–1206), Avi-tagged holo-protein. Briefly: ELISA; purified biotinylated NpF2164g6 immobilised, purified FLAG-tagged binders, red-light conditions (Pg state).
The target of assay [3] is NpF2164g6 (1038–1206), holo-protein, not biotinylated.
Assay [4] has as its target T1, NpF2164g6 (1038–1206), holo-protein, not biotinylated (phycocyanobilin (PCB) chromophore bound).
T1 chain: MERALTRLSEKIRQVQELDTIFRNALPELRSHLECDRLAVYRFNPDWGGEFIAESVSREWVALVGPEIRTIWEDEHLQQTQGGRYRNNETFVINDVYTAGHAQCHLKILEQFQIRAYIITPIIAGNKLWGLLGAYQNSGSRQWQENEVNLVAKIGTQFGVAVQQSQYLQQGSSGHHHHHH
Kind of assay: dark state (Pr), thermal reversion.

Assay [5] concerns the target Biotinylated NpF2164g6 (1038–1206), Avi-tagged holo-protein. Kind of assay: ELISA; purified biotinylated NpF2164g6 immobilised, purified FLAG-tagged binders, dark-adapted (Pr state).
Assay [6] addresses NpF2164g6 (1038–1206), holo-protein, not biotinylated. Kind of assay: other fluorescence titration; Pr (dark) state fluorescence of NpF2164g6 against binder concentration, 1:1 binding model, gives Kd,D; 25 °C, PBS pH 7.2.
For assay [7], the target named is T1, NpF2164g6 (1038–1206), holo-protein, …. Briefly: Pr-state (dark), from thermal reversion rate.
The target of assay [8] is T2, NpF2164g6 (1052–1206), N-terminal truncation (phycocyanobilin (PCB) chromophore linked to Cys90 (construct numbering); 15N label for NMR).
T2 chain: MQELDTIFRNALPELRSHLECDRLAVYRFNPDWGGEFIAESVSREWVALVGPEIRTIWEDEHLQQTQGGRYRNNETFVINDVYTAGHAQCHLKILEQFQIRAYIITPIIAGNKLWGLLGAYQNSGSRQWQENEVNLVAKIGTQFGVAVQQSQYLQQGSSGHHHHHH
Kind of assay: dark state (Pr), thermal reversion.

In assay [9] the target is T2, NpF2164g6 (1052–1206), N-terminal …. Briefly: light state (Pg), thermal reversion.

Chain of Biotinylated NpF2164g6 (1038–1206), Avi-tagged holo-protein (main, as listed by the source): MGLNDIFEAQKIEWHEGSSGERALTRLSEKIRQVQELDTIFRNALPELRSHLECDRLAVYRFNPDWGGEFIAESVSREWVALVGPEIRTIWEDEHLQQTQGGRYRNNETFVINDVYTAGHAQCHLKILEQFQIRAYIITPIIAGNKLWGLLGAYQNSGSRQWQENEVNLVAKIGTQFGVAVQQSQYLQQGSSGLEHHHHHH

B1: BNp-Red-1.2 (designed binder)
chain: MKLATIDQWLLKNAKEDAIAELKKAGITADAYFNWINNAWDVDYVNYRKNKILKAHAGSSGLEHHHHHH
Consider B1, for which the Kd in assay [1] was more than 30 µM; in assay [2], more than 100 µM; in assay [4], 3.7 µM; in [5], 0.6 µM; in [6], 3 µM; in assay [7] it was 3.7 µM. In assay [3], this molecule showed an SEAP reporter activity in stably transfected CHO-K1 cells (NpF2164g6-FUS-VP16-NLS and E-BNp-Red-1.2-NLS), dark against 660 nm illumination for 24 h, bulk cell culture of 24 fold. Besides, the SEAP reporter activity in stably transfected CHO-K1 cells (NpF2164g6-FUS-VP16-NLS and E-BNp-Red-1.2-NLS), dark against 660 nm illumination for 24 h, individual clones in [3] is more than 30 fold.

B2: BNp-Red-1.0 (binder of NpF2164g6-Red state) (designed binder)
chain: MKLATIDQWLLKNAKEDAIAELKKAGITSDAYFNLINDAFDVDYVNYRKNKILKAHAGSSGLEHHHHHH
For B2, the Kd in [1] was more than 200 µM; in assay [4] it was 7.9 µM; in [8], 7 µM; in [9], more than 180 µM; in assay [6] it was 7 µM; in assay [7], 7.9 µM.
